Measured values published in paper doi:10.1101/2025.01.14.632876v1.

Substrate: NC(=O)c1ccc[n+]([C@@H]2O[C@H](COP(=O)(O)OP(=O)(O)OC[C@H]3O[C@@H](n4cnc5c(N)ncnc54)[C@H](O)[C@@H]3O)[C@@H](O)[C@H]2O)c1
Experiment: purified protein
Details: G6PDH activity, co-substrate G6P, 2 M KCl, 100 mM Tris-HCl pH 8.5

B1: HvG6PDH (Haloferax volcanii DS2) (protein)
chain: MDQPVLLTGAGGRVGQAILGHIGDAYDWRLLDREPLSDEKIPDSVDSTEVYVADVTDETAVRNAMDGVHAVIHLAGDPRPEAPWDSVLRNNIDGTQQMFDAAVDVGVEKFAFASSNHAVGAYETTDRTPDMYRPHHEFRLDGTELPRPSNLYGVSKAAGETLGRYYHDHHDISVVNVRIGNLTQHHPPKEYERGQAMWLSYRDCGHLFECCIEADYDYEIVYGISDNDRKYYSIDRARAVLGYDPQDNSAEFTFEGEPLDEA
Which Km does the source give for B1 here?
The Km was 198 ± 6 µM.

And the kcat?
The kcat was 42.5 ± 0.1 s⁻¹.
